Key:
[1] = target: rat MadCam-1 (rat) (UniProt O70540); test: Europium-labelled antibody injected in rat, time-resolved fluorescence of pancreas homogenate
[2] = target: rat MadCam-1 (rat) (UniProt O70540); test: Europium-labelled antibody injected in rat, time-resolved fluorescence of small intestine homogenate
[3] = target: rat dipeptidyl peptidase IV (rat) (UniProt P14740); test: 125I-labelled antibody injected in rat, scintigraphy of tissues
[4] = target: rat dipeptidyl peptidase IV (rat) (UniProt P14740); test: Europium-labelled antibody injected in rat, time-resolved fluorescence of lung homogenate

UniProt P14740, sequence (P14740 whole entry R38A/Q470G): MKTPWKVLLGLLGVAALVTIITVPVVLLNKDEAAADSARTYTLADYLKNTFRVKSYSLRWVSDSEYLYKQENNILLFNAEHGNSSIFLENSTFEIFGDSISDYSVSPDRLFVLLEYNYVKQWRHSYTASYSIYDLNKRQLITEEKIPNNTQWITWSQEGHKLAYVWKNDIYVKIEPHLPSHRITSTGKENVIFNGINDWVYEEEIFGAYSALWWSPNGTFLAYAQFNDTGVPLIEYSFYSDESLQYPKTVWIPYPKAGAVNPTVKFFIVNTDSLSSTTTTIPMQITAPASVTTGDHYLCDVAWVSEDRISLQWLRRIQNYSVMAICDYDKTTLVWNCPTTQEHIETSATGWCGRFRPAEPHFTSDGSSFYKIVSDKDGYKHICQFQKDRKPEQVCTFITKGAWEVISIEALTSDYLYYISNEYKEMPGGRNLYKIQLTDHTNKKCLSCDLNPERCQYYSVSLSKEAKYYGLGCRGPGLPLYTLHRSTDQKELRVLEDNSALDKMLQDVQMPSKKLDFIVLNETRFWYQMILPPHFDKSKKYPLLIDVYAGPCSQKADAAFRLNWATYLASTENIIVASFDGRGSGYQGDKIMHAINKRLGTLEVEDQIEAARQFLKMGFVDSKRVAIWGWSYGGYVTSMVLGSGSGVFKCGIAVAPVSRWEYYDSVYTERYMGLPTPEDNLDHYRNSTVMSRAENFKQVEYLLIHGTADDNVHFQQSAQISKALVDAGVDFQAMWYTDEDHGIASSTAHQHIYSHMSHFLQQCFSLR
UniProt O70540, sequence (O70540 20-394 limits assumed): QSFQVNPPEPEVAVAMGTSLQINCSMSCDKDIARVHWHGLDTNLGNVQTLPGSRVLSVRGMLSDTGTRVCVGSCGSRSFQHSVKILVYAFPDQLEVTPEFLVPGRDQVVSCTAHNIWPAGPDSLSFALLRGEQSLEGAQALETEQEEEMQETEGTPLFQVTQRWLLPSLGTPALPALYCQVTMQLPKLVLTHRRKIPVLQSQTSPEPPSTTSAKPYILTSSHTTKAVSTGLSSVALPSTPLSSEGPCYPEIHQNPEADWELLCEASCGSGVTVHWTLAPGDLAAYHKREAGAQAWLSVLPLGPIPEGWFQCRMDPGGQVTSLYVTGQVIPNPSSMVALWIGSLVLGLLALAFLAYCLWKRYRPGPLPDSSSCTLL

Substance | percent of injected dose localized to the pancreas (5 µg dose, 6 hours) (% of injected dose) [1] | percent of injected dose in the small intestine (5 µg dose, 6 hours) (% of injected dose) [2] | antibody per gram of lung tissue (5 µg dose, 5 minutes) (µg per gram of tissue) [3] | antibody per gram of lung tissue (5 µg dose, 8 hours) (µg per gram of lung tissue) [3] | percent of injected dose localized in the lung (1 µg dose, 2 hours) (% of injected dose) [3] | percent of injected dose localized in the lung (1 µg dose, 8 hours) (% of injected dose) [3] | percent of injected dose localized in the lung (5 µg dose, 5 minutes) (% of the initial antibody dose) [3] | percent of injected dose localized in the lungs (5 µg dose, 30 minutes) (% of injected dose) [4] | percent of injected dose localized in the lungs (5 µg dose, 6 hours) (% of injected dose) [4]
OST-2 (Pharmingen), mouse monoclonal antibody that recognizes rat MadCam-1 | 3 | > 5 | – | – | – | – | – | – | –
OX-61 (Pharmingen), mouse monoclonal antibody specific for DPP-4 | – | – | > 0.4 | 0.7 | 22 | 30 | 20 | 15 | 7
